For one substance, suppression of CD69 up-regulation by U266 cells, free IgE results are on record in patent publication US20180193452A1.

In the assay the target is wild type CAR (WT CAR): human FcεRIα extracellular domain fused to CD3ζ (human). Briefly: cell-based or functional assay.
Target sequence (chain, as listed by the source): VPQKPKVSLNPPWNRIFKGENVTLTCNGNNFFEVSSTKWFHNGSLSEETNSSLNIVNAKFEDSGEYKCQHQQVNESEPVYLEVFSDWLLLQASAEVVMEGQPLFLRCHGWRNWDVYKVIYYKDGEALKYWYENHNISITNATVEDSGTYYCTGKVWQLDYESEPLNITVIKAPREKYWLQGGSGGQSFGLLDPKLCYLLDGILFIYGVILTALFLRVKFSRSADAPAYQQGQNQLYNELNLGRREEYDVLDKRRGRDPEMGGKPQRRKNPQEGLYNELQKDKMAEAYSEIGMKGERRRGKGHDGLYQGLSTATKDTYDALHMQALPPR

Sequence of purified human IgE (Abcam) (P01854 other isoform, or with tags, fused parts or gaps): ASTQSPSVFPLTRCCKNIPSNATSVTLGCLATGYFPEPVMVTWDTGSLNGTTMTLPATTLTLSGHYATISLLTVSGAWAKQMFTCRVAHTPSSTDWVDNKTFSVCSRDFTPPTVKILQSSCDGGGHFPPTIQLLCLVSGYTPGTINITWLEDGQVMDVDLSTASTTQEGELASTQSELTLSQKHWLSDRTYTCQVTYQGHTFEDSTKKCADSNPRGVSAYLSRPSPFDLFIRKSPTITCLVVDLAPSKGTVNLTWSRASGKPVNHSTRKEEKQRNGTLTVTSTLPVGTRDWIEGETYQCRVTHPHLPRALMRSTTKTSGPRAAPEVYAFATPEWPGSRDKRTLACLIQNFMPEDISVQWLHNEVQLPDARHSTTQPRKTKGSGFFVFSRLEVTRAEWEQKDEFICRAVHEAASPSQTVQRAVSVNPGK

“purified human IgE (Abcam) (from UniProt P01854 1-428) (antibody)” gave a suppression of CD69 up-regulation by U266 cells, free IgE at 1.7 µg/ml greater than 2 fold and a suppression of CD69 up-regulation by U266 cells, free IgE at 10 µg/ml greater than 4 fold.
